{"source": "patent US20190330331A1", "about": "(BLOOM DIAGNOSTICS, published 2019)", "binders": {"B1": {"name": "G170-FC5 (antibody, V domains shown)", "VH": "EVKLVESGGGLVKPGGSLKLSCAASGFIFSTYTMSWVRQTPGKRLEWVATISSGGSYTYYPDSVKGRFTISRDNAKNTLYLQMSSLRSEDTAMYYCTRHGSDYRYDGFDYWGQGTTLTVSS", "VL": "DILMTQSPASLSVSVGETVTITCRASENIYSNLAWYQQKQGKSPQLLVYAATNLADGVPSRFSGSGSGTQYSLKINSLQSEDFGSYYCQHFWGTPFTFGSGTKLEIK", "notes": "kappa primers were used for the VL; also called anti-AMH G170-FC5; anti-AMH antibody"}}, "molecular_target": "T1, recombinant yeast-expressed His-tagged full-length AMH comprising amino acids 26-560 of human AMH (human, UniProt P03971 26-560)", "T1 construct": "Bought protein (Antikörper Online, ABIN2524475); also called recombinant AMH; human Anti-Müllerian hormone", "T1 sequence": "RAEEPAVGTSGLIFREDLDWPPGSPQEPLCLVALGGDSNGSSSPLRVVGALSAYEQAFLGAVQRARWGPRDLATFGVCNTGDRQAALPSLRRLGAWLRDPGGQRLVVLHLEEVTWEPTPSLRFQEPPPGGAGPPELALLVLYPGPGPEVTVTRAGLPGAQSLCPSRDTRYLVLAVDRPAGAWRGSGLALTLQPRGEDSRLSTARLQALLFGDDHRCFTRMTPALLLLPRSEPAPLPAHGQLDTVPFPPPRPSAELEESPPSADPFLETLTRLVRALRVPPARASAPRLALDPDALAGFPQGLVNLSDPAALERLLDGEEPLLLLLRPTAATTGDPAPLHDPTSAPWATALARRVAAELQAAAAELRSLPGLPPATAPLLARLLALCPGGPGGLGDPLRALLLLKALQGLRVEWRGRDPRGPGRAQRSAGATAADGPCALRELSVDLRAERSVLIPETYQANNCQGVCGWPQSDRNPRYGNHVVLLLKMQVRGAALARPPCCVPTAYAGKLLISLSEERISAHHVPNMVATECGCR", "assay": "SPR (Biacore T200), AMH amine-coupled to the chip, antibody as analyte, bivalent-analyte model", "method": "Surface-plasmon-resonance (SPR) measurements were performed using a Biacore T200 facility, control software version 2.0, and Series S sensor-chips carboxymethyl dextran chip type 5 (CMS, GE Healthcare Bio-Sciences AB, Uppsala, Sweden). The system was operating at 25° C. in running buffer HBSP (10 mmol/L 4-(2-hydroxyethyl)piperazine-1-ethanesulfonic acid (Hepes), 150 mmol/L NaCl., 0.05% Tween 20, pH 7.4). AMH was transferred to 10 mmol/L sodium acetate buffer pH 4.0 by passing it through a NAPS column (GE Healthcare) before immobilization by amine coupling (Biacore Sensor Surface Handbook). The carboxyl groups on the chip were activated with an mixture containing 200 mM 1-ethyl-3-(3-dimethylaminopropyl)-carbodiimide hydrochloride (EDC, Sigma-Aldrich) and 50 mM N hydroxysuccinimide (NHS, Fluka) for 180 s. AMH was then injected for 150 s at a concentration of 2.5 μg/mL in, at a flow of 10 μL/min and […]. Approximately 100 resonance units (RU) of AMH were covalently bound to the flow cell. Unreacted NHS esters were blocked with 1 mol/L ethanolamine pH 8.5 for 7 min. […] Association and dissociation rates and the binding constants of the antibodies were determined using the bivalent-analyte-binding model of the Biacore evaluation software (version 2.0). […]"}
{"binder": "B1", "values": [{"measurement": "Kd", "value": "~1", "unit": "nM"}]}
